Measured values taken from publication PMC7086397.

Target: actin filament (UniProt P68135)
Assay: fluorescence microscopy in a microfluidics chamber

fascin (from UniProt Q16658 1-493) (natural protein)
Kd: 0.075 µM
